# The nanobody polyreactivity screen of Harvey et al. (2022)
# Experiment: yeast display, Sf9 membrane polyspecificity reagent, FACS + sequencing; frameworks hold sequencing errors
# In short: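 A synthetic nanobody library was expressed on Saccharomyces cerevisiae BJ5465 by galactose induction for 36–48 hours. The library was stained for 1 hour at 4 °C with 10% biotinylated, detergent-solubilized Sf9 membrane reagent and enriched with streptavidin microbeads before FACS. Low and high (top ~1%) gates were set on anti-HA fluorescence for expression and streptavidin fluorescence for reagent binding, and each polyreactivity label reflects the gate of origin.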
row,Sequence,polyreactivity (PSR sort gate)
1,QVQLVESGGGLVQAGGSLRLSCAASGGTLEVYAMGWYRQAPGKEREFVAAISWSGGRTYYADSVKGRFTISRDNAKNTVYLQMNSLKPEDTAVYYCATRDRAGYYYWGQGTQVTVSS,high polyreactivity
2,QVQLVESGGGLVQAGGSLRLSCAASGGTLFQNAMGWYRQAPGKERELVATIRVSGGITYYADSVKGRFTISRDNAKNTVYLQMNSLKPEDTAVYYCAKDSADSRAVGDVLTFDYWGQGTQVTVSS,low polyreactivity
3,QVQLVESGGGLVQAGGSLRLSCAASGGTLGLNAMGRTRQAPGKEREFVAAINRSGGSTRYADSVKGRFTISRDNAKNTVYLQMISLKPEDTAVYYCNAASWTFQTTPKYDYWGQGTQVTVSS,high polyreactivity
4,QVQLVESGGGLVQAGGSLRLSCAASGGTLRGYAMGWYRQAPGKERELVASITYTSGSTYYADSVKGRFTISRDNAKNTVYLQINSLKPEDTAVYYCAAVARTVPSYSYNYWGQGTKVTVSS,high polyreactivity
5,QVQLVESGGGLVQAGGSLRLSCAASGGTLSYYAMGWYRQAPGKERELVAGISRRGGSTYYADSVKGRFTISRDNAKNTVYLQMNSLNPEDTAVYYCAADSNRHYYYWGQGTQVTVSS,high polyreactivity
6,QVQLVESGGGLVQAGGSLRLSCAASGGTLYIYAMGWDRQAPGKERELVAAIRGRGGSTYADSVKGRCTISRDNAKNTVYLQMNSLKPEDTAVYYCAASGIRYWLPYDYWGQGTQVTVSS,high polyreactivity
7,QVQLVESGGGLVQAGGSLRLSCAASGGTRFTNAMGWYRQAPGKEREMVAAISWRGGRTYYADSVKGRFTISRDNAKNTVYLQMNSQKPEDTAVYYCAAASAAGYDYWGQGTQVTVSS,low polyreactivity
8,QVQLVESGGGLVQAGGSLRLSCAASGGTYVGYSMGWYRQAPGKERELDATITRRGGNTYYADSVKGRFTISRDNAKNTVYLQMNSLKPEDTAVYYCAARKKGSRVGYDYWGQGTQVTVSS,high polyreactivity
9,QVQLVESGGGLVQAGGSLRLSCAASGGYGMGWYRQAPGKERELVAAISYSGGSTYYADSVKGRFTISRDNAKNTVYLQMNSLKPEDTAVYYCNVLRGSLNGWWPGYDYWGQGTQVTVSS,low polyreactivity
10,QVQLVESGGGLVQAGGSLRLSCAASGHIFDHYAMGWYRQAPGKERELVAAISTSGTSTYYADSVKGRFTISRDNAKNTVYLQMNSLKPEDTAVYYCNAGGGHVGDVRYPYRYWRYNYWGQGTQVTVSS,low polyreactivity
11,QVQLVESGGGLVQAGGSLRLSCAASGHIFFYYTMGWYRQAPGKERELVAGIPIGGSTNYADSVKGRFTISRDNAKNTVYLQMNSLKPVDTAVYYFNVVKYVYIYSFWEYYYWGQGTQVTVSS,low polyreactivity
12,QVQLVESGGGLVQAGGSLRLSCAASGHIFPTNAMGWYRQAPGKERELVAVISESVGSTYYADSVKGRFTISRDNAKNTVYLQMNSLKPEDTAVYYCAVRSRTPRAYYYWGQGTQVTVSS,low polyreactivity
13,QVQLVESGGGLVQAGGSLRLSCAASGHIFYAYAMASYRQAPGKERELVASITYRGVSTYYADSVKARFTISRDNAKNTVYLQMHSLKPEDTAVYYCAAGRSRYLWFGRDFDYWGQGTQVTVSS,low polyreactivity
14,QVQLVESGGGLVQAGGSLRLSCAASGHNFFYYTMVWYRPAPGKERELVAGITIGGSTNYADSVKGRFTISRDNAKNNVYLVMNSLKPEDTAVYYCNVDKYVYIYSYWEYYYWGQGTQVTVSS,low polyreactivity
15,QVQLVESGGGLVQAGGSLRLSCAASGHTFAYNAMGWYRQAPGKEREFVAAITWSTDNTYYADSVKGRFTISRDNAKNTVYLQMNSLKPEDTAVYYCAKDAAESYRYGYWGQGTQVTVSS,low polyreactivity
16,QVQLVESGGGLVQAGGSLRLSCAASGHTFYYKALGWYTQAPGKEREFVATITESGTSTYYADSVKGRCTLSRDNAKNTVYLQMKSLKPEDTAGYYCAAQYWYVGGIALYDYWGQGTQVTVSS,low polyreactivity
